In PMC8216286:
Values belong to the substance of their own block, whether it stands above or below them.

Legend:
[1] = target: Staphylococcus aureus Cas9 (SauCas9), wild type (Staphylococcus aureus) (UniProt J7RUA5); assay: BLI; biotinylated SauCas9 protein (or SauCas9-sgRNA complex) loaded on streptavidin biosensors for 60 s; 20°C; 20 mM HEPES pH 7.55, 100 mM KCl, 10 mM MgCl2, 1 mM DTT, 5% glycerol; four or five concentrations of sample
[2] = test system: SauCas9 (Staphylococcus aureus); assay: BLI; settings: 10 mM Mg2+, BLI: 20 mM HEPES pH 7.55, 100 mM KCl, 10 mM MgCl2, 1 mM DTT, 5% (w/v) glycerol, 20 C, complex for crystals: 10 mM Tris-HCl pH 8.0, 300 mM NaCl, 3 mM DTT
[3] = target: SauCas9 (N580A/C946A) (Staphylococcus aureus) (UniProt J7RUA5); assay: crystal structure; SauCas9 (N580A/C946A)-sgRNA-AcrIIA14ct-dsDNA quaternary complex, mixed at 1:1.2:5:2, purified by SEC; hanging drop, 20°C; 2.22 Å

Kd [1]: 58000 pM
Substance: AcrIIA14ct mutant H56K (domain or fragment)

Substance: SauCas9 sgRNA (BLI)
Kd ([2]; biotinylated SauCas9 on streptavidin sensor): 473 pM

Substance: SauCas9 sgRNA / target DNA (BLI)
Kd ([2]; target DNA as analyte, SauCas9-sgRNA complex presumably immobilized): 535 pM

stoichiometry N (AcrIIA14ct per SauCas9) [3]: 1
Kd [1]: 5.58 pM
Substance: AcrIIA14ct (C-terminal domain of AcrIIA14, residues 60-159) (domain or fragment)
